Source: the supplement of paper PMC10567573
± gives the standard deviation.

Experiment: protein stability index of a GFP-peptide fusion (GPS, HEK-293T) (PSI 1-6); higher = more stable
Conditions: c terminus: a fixed tail appended
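Further: 24-mer peptide tiles fused after GFP, lentivirally expressed, FACS-sorted into six equal bins by GFP/DsRed ratio, decoded by Illumina sequencing, PSI is the read-weighted mean bin number.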

MLSHDNITWIAGAVTKDFKLTDKH [ACSBG2]
protein stability index (treatment: DMSO): 2.66 ± 0.42 | protein stability index (treatment: MLN4924 1 uM, 8 h): 2.86 ± 0.3

ELFIEISRRIPSTDANLPSGGKGF [RAB22A]
protein stability index (treatment: DMSO): 2.36 ± 0.33 | protein stability index (treatment: MLN4924 1 uM, 8 h): 2.14 ± 0.34

CYEHFAELDIPQSVQQNGSIYIHV [CLPTM1]
protein stability index (treatment: DMSO): 2.75 ± 0.48 | protein stability index (treatment: MLN4924 1 uM, 8 h): 2.98 ± 0.45

NPMDMGTIKKRLENNYYWSASECM [BRD3]
protein stability index (treatment: DMSO): 2.34 ± 0.31 | protein stability index (treatment: MLN4924 1 uM, 8 h): 2.65 ± 0.082

PSLSPGSSCVKYLIFLSNFPFSLL [TSPAN10]
protein stability index (treatment: DMSO): 2.8 ± 0.85 | protein stability index (treatment: MLN4924 1 uM, 8 h): 2.83 ± 0.6

ESVADLLALEEPVDYKQSVLNVAG [SLC6A17]
protein stability index (treatment: DMSO): 4.43 ± 0.1 | protein stability index (treatment: MLN4924 1 uM, 8 h): 4.58 ± 0.24

STKTPAPCSEFMEPSSDPSLLGEP [SPAG8]
protein stability index (treatment: DMSO): 5.24 ± 0.44 | protein stability index (treatment: MLN4924 1 uM, 8 h): 5.25 ± 0.081

PATGGAIPSWQIRTVKLIRYVSNW [PKD2L1]
protein stability index (treatment: DMSO): 2.09 ± 0.24 | protein stability index (treatment: MLN4924 1 uM, 8 h): 2.24 ± 0.39

ILDIHFLSQADFLVCTFSSQVCRV [FUT8]
protein stability index (treatment: DMSO): 3.52 ± 0.23 | protein stability index (treatment: MLN4924 1 uM, 8 h): 3.09 ± 0.16

RIIPNFYPPLEGHVRQGVFSSLNH [INTS3]
protein stability index (treatment: DMSO): 2.28 ± 0.025 | protein stability index (treatment: MLN4924 1 uM, 8 h): 2.3 ± 0.16

DAINEEIRMIQEEKESTELRAEEI [PPFIA4]
protein stability index (treatment: DMSO): 5.71 ± 0.15 | protein stability index (treatment: MLN4924 1 uM, 8 h): 5.51 ± 0.25

SSLLAPAKHLIASMLSKNPEDRPS [PLK2]
protein stability index (treatment: DMSO): 3.2 ± 0.38 | protein stability index (treatment: MLN4924 1 uM, 8 h): 3.37 ± 0.18

PVGRSWHSLTPVSSDHLFLFGGFT [KLHDC2]
protein stability index (treatment: DMSO): 2.3 ± 0.53 | protein stability index (treatment: MLN4924 1 uM, 8 h): 1.87 ± 0.096

SDSLLTGMAFFKMREMFFEDHIDD [CNOT7]
protein stability index (treatment: DMSO): 2.58 ± 0.054 | protein stability index (treatment: MLN4924 1 uM, 8 h): 3.3 ± 0.48

SIPLTPGDTPIRKKEELLFDDGDD [FBF1]
protein stability index (treatment: DMSO): 5.51 ± 0.54 | protein stability index (treatment: MLN4924 1 uM, 8 h): 5.62 ± 0.17

GSRTPGRSELVEGCGWRCPEHGDR [TRIM14]
protein stability index (treatment: DMSO): 4.19 ± 0.3 | protein stability index (treatment: MLN4924 1 uM, 8 h): 4.48 ± 0.074

FSSQKLKCLSMFPHYICTLKQPHL [PNLIPRP1]
protein stability index (treatment: DMSO): 2.66 ± 0.57 | protein stability index (treatment: MLN4924 1 uM, 8 h): 2.17 ± 0.35

YMGKGSMTGLALKHMFERSFTQGE [MATN2]
protein stability index (treatment: DMSO): 2.37 ± 0.23 | protein stability index (treatment: MLN4924 1 uM, 8 h): 3.07 ± 0.18

TRKHYQVTGYGINGTGDSNDFWRI [POMT2]
protein stability index (treatment: DMSO): 2.34 ± 0.25 | protein stability index (treatment: MLN4924 1 uM, 8 h): 2.32 ± 0.28

LVETNRREVEQWFATQTEELNKQV [KRT33B]
protein stability index (treatment: DMSO): 4.41 ± 0.21 | protein stability index (treatment: MLN4924 1 uM, 8 h): 4.49 ± 0.31

KAHSGRIPISLETQAHIQECKHPS [MCOLN1]
protein stability index (treatment: DMSO): 4.5 ± 0.12 | protein stability index (treatment: MLN4924 1 uM, 8 h): 4.65 ± 0.14

EAMYHCCWNTSYCSIKCQQEHWHA [ZMYND11]
protein stability index (treatment: DMSO): 2.3 ± 0.45 | protein stability index (treatment: MLN4924 1 uM, 8 h): 2.65 ± 0.43

DDHGDECSYTDLLPQDEGGGGYSS [KCNA4]
protein stability index (treatment: DMSO): 5.52 ± 0.22 | protein stability index (treatment: MLN4924 1 uM, 8 h): 5.62 ± 0.082

RCLHMDQLQDFNIPQAGGWGPWGP [ADAMTS4]
protein stability index (treatment: DMSO): 2.24 ± 0.35 | protein stability index (treatment: MLN4924 1 uM, 8 h): 2.24 ± 0.75

QALAQAIKEAKEQHPDMSVTKVVV [EPB41L3]
protein stability index (treatment: DMSO): 2.44 ± 0.34 | protein stability index (treatment: MLN4924 1 uM, 8 h): 2.53 ± 0.27

KSTWPRYSKPGLSMRLLESKKGLS [TCF25]
protein stability index (treatment: DMSO): 2.92 ± 0.34 | protein stability index (treatment: MLN4924 1 uM, 8 h): 3.12 ± 0.17

VFCDMETDGGGWLVFQRRMDGQTD [TNXB]
protein stability index (treatment: DMSO): 2.9 ± 0.27 | protein stability index (treatment: MLN4924 1 uM, 8 h): 2.98 ± 0.096

ACDELFSYLIEKVKRKKNVLRLCC [PRAME]
protein stability index (treatment: DMSO): 2.99 ± 0.43 | protein stability index (treatment: MLN4924 1 uM, 8 h): 2.7 ± 0.61

MPSTPGFVGYNPYSHLAYNNYRLG [SMARCE1]
protein stability index (treatment: DMSO): 2.27 ± 0.099 | protein stability index (treatment: MLN4924 1 uM, 8 h): 2.42 ± 0.23

IMLRSNESFTMDDMSWTCGNQDYK [VDR]
protein stability index (treatment: DMSO): 2.86 ± 0.12 | protein stability index (treatment: MLN4924 1 uM, 8 h): 2.61 ± 0.27

NFDDILNVCDDYDVTCNEFFFDRN [KCNG1]
protein stability index (treatment: DMSO): 3.4 ± 0.28 | protein stability index (treatment: MLN4924 1 uM, 8 h): 3.27 ± 0.49

QRGQEPLGPGALHFDLRDDDDAEE [TCF25]
protein stability index (treatment: DMSO): 5.36 ± 0.39 | protein stability index (treatment: MLN4924 1 uM, 8 h): 5.53 ± 0.33

LRQRESKWLDMLNNWDKWMAKKHK [TBC1D10A]
protein stability index (treatment: DMSO): 2.9 ± 0.24 | protein stability index (treatment: MLN4924 1 uM, 8 h): 3.2 ± 0.41

TPEAKDLINKMLTINPSKRITAAE [CAMK2A]
protein stability index (treatment: DMSO): 4.28 ± 0.17 | protein stability index (treatment: MLN4924 1 uM, 8 h): 4.42 ± 0.1

LSVIQMVAFLEQRASALLASCSKN [FBXO34]
protein stability index (treatment: DMSO): 2.81 ± 0.35 | protein stability index (treatment: MLN4924 1 uM, 8 h): 2.71 ± 0.71

YVSLGRLGAAKGALHPGCFAPLHP [CEBPB]
protein stability index (treatment: DMSO): 3.44 ± 0.94 | protein stability index (treatment: MLN4924 1 uM, 8 h): 2.73 ± 0.17

GSSGASDQDTLAPLPHPGAAPWPM [DVL3]
protein stability index (treatment: DMSO): 4.2 ± 0.15 | protein stability index (treatment: MLN4924 1 uM, 8 h): 4.3 ± 0.09

SCKLVRDKITGQSLGYGFVNYSDP [ELAVL3]
protein stability index (treatment: DMSO): 2.4 ± 0.19 | protein stability index (treatment: MLN4924 1 uM, 8 h): 2.5 ± 0.37

TSDAAFLTQWKDSLVSLVLYNMDL [ZER1]
protein stability index (treatment: DMSO): 2.71 ± 0.52 | protein stability index (treatment: MLN4924 1 uM, 8 h): 2.56 ± 0.44

HAPGVPRILVGNRLHLAFKRQVPT [RAB40C]
protein stability index (treatment: DMSO): 2.69 ± 0.17 | protein stability index (treatment: MLN4924 1 uM, 8 h): 2.72 ± 0.13

LPPQYVDDVISRIDRMFPEMSIHL [MED27]
protein stability index (treatment: DMSO): 2.19 ± 0.087 | protein stability index (treatment: MLN4924 1 uM, 8 h): 2.29 ± 0.29

WTLYKILDSCKQLTLAQGAGEEDP [SMG5]
protein stability index (treatment: DMSO): 2.32 ± 0.18 | protein stability index (treatment: MLN4924 1 uM, 8 h): 2.56 ± 0.28

SKEKDTQNQNITLDCEGTTNKMKS [KMT2E]
protein stability index (treatment: DMSO): 5.29 ± 0.058 | protein stability index (treatment: MLN4924 1 uM, 8 h): 5.28 ± 0.45

PVANSGTKPKTTAIQGISEKEKAE [DLC1]
protein stability index (treatment: DMSO): 5.51 ± 0.28 | protein stability index (treatment: MLN4924 1 uM, 8 h): 5.68 ± 0.28
